{
  "source": "paper PMC3086013",
  "about": "(Biochemistry, 2010)",
  "proteins": {"B1": {"name": "seipin-myc13 (yeast seipin fused to 13 tandem copies of the myc epitope) (natural protein, S. cerevisiae, UniProt Q06058 1-285, looked up)", "chain": "MKINVSRPLQFLQWSSYIVVAFLIQLLIILPLSILIYHDFYLRLLPADSSNVVPLNTFNILNGVQFGTKFFQSIKSIPVGTDLPQTIDNGLSQLIPMRDNMEYKLDLNLQLYCQSKTDHLNLDNLLIDVYRGPGPLLGAPGGSNSKDEKIFHTSRPIVCLALTDSMSPQEIEQLGPSRLDVYDEEWLNTIRIEDKISLESSYETISVFLKTEIAQRNLIIHPESGIKFRMNFEQGLRNLMLRKRFLSYIIGISIFHCIICVLFFITGCTAFIFVRKGQEKSKKHS"}, "B2": {"name": "seipin-mCherry (yeast seipin tagged at its carboxy terminus with mCherry) (natural protein, S. cerevisiae, UniProt Q06058 1-285, looked up)", "chain": "B1 chain"}},
  "molecular_target": "the molecule itself",
  "experiment": "velocity sedimentation on H2O- and D2O-sucrose gradients + SEC",
  "data": [
    {"protein": "B1", "values": [
      {"measurement": "stoichiometry N", "value": 9.4, "unit": "subunits/complex"}
    ]},
    {"protein": "B2", "values": [
      {"measurement": "stoichiometry N", "value": 8.7, "unit": "subunits/complex"}
    ]}
  ]
}
